Data on one substance can be found in patent US20090016967A1.

This experiment deals with IGF-1 receptor (IGF-1R) on primary mouse lung fibroblasts / in mouse lung (mouse) (UniProt Q60751). In words: cell-based or functional assay.
Chain of IGF-1 receptor (IGF-1R) on primary mouse lung fibroblasts / in mouse lung (mouse) (Q60751 31-1373): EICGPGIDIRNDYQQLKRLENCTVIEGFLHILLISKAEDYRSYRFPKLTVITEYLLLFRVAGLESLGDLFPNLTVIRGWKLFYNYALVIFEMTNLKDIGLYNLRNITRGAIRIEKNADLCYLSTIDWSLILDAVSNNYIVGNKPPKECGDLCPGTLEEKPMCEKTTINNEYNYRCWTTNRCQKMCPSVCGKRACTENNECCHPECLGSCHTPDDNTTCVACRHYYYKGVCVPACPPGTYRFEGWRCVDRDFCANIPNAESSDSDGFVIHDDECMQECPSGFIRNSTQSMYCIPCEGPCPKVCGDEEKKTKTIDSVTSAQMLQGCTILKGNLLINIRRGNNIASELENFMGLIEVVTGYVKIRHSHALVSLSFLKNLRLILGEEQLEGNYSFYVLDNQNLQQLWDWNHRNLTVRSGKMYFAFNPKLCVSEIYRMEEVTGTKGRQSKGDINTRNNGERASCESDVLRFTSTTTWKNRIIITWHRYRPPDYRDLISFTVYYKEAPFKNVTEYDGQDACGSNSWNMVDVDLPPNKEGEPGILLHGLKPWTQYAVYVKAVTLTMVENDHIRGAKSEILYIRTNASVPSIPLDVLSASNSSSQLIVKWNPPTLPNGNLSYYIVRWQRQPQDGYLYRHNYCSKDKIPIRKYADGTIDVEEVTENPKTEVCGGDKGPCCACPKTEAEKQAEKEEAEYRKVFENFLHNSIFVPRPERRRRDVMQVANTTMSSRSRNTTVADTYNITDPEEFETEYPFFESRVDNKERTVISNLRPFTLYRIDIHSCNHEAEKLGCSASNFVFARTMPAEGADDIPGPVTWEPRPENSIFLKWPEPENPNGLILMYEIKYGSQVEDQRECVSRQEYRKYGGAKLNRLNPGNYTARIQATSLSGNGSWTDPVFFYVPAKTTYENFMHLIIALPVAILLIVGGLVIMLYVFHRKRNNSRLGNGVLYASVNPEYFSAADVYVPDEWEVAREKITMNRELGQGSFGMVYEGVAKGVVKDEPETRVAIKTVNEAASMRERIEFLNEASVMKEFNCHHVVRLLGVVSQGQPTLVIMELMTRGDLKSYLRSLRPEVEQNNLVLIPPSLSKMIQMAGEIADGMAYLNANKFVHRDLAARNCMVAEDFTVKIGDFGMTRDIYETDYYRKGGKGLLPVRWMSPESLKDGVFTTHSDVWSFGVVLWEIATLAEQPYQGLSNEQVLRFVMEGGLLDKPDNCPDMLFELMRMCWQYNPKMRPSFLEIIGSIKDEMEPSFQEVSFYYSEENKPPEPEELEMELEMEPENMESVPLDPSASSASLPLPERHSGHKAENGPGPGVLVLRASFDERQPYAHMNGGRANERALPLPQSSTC

On to IGF-1 (R&D Systems) (ligand), for which the migration of mouse lung fibroblasts (transwell) turned out to be 1.8 fold.
